From publication PMC9482650, “Quantitative fragmentomics allow affinity mapping of interactomes” (Nature Communications, 2022)

Assays:
Assay in all cases: holdup assay
Design in all cases: key: below the threshold = too weak to quantify, mostly under pKd 3.1 to 4
FRMPD3, Q5JV73 = target: FRMPD3, Q5JV73
SIPA1L2, Q9P2F8 = target: T1, SIPA1L2, Q9P2F8
T1 sequence (Q9P2F8 945-1036, limits assumed, looked up): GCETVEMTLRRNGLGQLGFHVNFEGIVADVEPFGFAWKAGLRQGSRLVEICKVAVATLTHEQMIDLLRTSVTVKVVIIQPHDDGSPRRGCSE

GRIP1_3, Q9Y3R0 = target: T2, GRIP1_3, Q9Y3R0
T2 sequence (Q9Y3R0 247-346, limits assumed, looked up): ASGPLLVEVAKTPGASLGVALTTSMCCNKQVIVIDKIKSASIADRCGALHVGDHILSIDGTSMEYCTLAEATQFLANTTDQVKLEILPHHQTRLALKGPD

TJP3_3, O95049 = target: T3, TJP3_3, O95049
T3 sequence (O95049 375-456, limits assumed, looked up): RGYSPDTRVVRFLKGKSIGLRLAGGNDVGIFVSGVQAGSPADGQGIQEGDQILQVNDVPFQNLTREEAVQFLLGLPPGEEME

TJP2_1, Q9UDY2 = target: TJP2_1, Q9UDY2
TJP2_1, Q9UDY2, sequence (Q9UDY2 24-128): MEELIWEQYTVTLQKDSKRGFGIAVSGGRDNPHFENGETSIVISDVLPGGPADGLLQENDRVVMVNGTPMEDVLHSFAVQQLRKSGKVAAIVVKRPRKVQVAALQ

MAGI2_4, Q86UL8 = target: MAGI2_4, Q86UL8
MAGI2_4, Q86UL8, sequence (Q86UL8 772-865): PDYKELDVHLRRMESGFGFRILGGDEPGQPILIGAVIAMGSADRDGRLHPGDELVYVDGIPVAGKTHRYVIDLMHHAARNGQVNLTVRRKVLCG

ARHGEF11, O15085 = target: T4, ARHGEF11, O15085
T4 sequence (O15085 42-136, limits assumed, looked up): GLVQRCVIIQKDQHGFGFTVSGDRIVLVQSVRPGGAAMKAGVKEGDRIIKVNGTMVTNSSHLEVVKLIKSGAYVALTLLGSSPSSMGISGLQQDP

CASK, O14936 = target: CASK, O14936
CASK, O14936, sequence (O14936 487-570): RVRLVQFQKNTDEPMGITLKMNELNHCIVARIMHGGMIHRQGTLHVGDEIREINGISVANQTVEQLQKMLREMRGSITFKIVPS

TJP1_2, Q07157 = target: TJP1_2, Q07157
TJP1_2, Q07157, sequence (Q07157 181-274): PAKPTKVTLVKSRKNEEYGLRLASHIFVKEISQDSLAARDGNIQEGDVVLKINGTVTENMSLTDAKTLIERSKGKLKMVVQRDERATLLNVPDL

MAST1, Q9Y2H9 = target: MAST1, Q9Y2H9
MAST1, Q9Y2H9, sequence (Q9Y2H9 962-1065): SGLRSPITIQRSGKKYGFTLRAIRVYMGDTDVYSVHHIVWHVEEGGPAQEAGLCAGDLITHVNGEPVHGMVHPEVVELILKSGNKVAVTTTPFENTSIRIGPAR

MPP2, Q14168 = target: T5, MPP2, Q14168
T5 sequence (Q14168 180-250, limits assumed, looked up): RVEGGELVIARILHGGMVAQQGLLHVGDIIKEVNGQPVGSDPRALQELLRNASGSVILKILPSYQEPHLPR

LIN7C, Q9NUP9 = target: T6, LIN7C, Q9NUP9
T6 sequence (Q9NUP9 88-185, limits assumed, looked up): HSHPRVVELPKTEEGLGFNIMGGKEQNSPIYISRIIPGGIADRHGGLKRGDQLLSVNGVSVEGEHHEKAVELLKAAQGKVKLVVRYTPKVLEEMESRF

GRIP2_7, Q9C0E4 = target: GRIP2_7, Q9C0E4
GRIP2_7, Q9C0E4, sequence (Q9C0E4 934-1023): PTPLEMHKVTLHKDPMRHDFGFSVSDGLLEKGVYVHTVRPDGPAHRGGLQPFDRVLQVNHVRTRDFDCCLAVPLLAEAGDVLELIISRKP

DLG1_2, Q12959 = target: DLG1_2, Q12959
DLG1_2, Q12959, sequence (Q12959 314-412): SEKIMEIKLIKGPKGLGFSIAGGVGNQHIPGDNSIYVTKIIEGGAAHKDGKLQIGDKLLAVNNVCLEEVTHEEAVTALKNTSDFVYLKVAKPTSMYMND

GIPC2, Q8TF65 = target: GIPC2, Q8TF65
GIPC2, Q8TF65, sequence (Q8TF65 112-203): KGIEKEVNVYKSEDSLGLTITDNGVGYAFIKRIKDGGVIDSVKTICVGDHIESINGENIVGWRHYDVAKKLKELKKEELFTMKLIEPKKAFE

DFNB31_2, Q9P202 = target: T7, DFNB31_2, Q9P202
T7 sequence (Q9P202 274-371, limits assumed, looked up): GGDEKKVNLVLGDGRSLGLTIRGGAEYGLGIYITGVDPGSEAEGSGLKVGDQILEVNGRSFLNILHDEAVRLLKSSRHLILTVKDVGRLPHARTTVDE

SNTG2, Q9NY99 = target: T8, SNTG2, Q9NY99
T8 sequence (Q9NY99 68-166, limits assumed, looked up): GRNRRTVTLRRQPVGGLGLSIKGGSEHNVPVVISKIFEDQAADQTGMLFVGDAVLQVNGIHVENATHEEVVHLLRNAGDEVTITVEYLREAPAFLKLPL

DLG5_1, Q8TDM6 = target: DLG5_1, Q8TDM6
DLG5_1, Q8TDM6, sequence (Q8TDM6 617-713): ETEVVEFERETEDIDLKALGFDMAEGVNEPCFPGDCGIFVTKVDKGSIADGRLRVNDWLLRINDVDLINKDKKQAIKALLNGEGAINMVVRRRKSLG

LNX2_3, Q8N448 = target: T9, LNX2_3, Q8N448
T9 sequence (Q8N448 463-564, limits assumed, looked up): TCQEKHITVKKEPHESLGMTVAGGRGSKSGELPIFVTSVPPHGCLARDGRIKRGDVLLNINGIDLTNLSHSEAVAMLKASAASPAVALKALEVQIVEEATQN

MAGI1_2, Q96QZ7 = target: MAGI1_2, Q96QZ7
MAGI1_2, Q96QZ7, sequence (Q96QZ7 456-580): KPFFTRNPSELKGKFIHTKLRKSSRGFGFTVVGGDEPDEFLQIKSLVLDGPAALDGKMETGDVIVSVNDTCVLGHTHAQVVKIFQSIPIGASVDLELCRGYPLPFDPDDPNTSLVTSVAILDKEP

DFNB31_1, Q9P202 = target: T10, DFNB31_1, Q9P202
T10 sequence (Q9P202 135-233, limits assumed, looked up): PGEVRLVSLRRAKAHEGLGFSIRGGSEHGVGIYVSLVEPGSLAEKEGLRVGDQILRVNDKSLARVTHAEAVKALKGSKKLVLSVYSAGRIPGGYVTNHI

FRMPD2_1, Q68DX3 = target: FRMPD2_1, Q68DX3
FRMPD2_1, Q68DX3, sequence (Q68DX3 770-861): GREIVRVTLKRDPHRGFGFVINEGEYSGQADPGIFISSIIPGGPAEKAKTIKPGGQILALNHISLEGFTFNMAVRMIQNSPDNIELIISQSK

MAGI2_2, Q86UL8 = target: MAGI2_2, Q86UL8
MAGI2_2, Q86UL8, sequence (Q86UL8 410-522): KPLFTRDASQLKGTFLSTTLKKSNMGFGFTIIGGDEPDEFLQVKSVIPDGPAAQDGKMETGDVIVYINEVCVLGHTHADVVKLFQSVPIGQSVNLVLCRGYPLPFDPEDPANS

PARD3B_1, Q8TEW8 = target: T11, PARD3B_1, Q8TEW8
T11 sequence (Q8TEW8 196-299, limits assumed, looked up): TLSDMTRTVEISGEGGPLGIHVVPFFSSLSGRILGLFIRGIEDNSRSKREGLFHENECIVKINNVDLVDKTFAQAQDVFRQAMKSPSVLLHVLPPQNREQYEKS

Inadl_5, Q8NI35 = target: Inadl_5, Q8NI35
Inadl_5, Q8NI35, sequence (Q8NI35 673-780): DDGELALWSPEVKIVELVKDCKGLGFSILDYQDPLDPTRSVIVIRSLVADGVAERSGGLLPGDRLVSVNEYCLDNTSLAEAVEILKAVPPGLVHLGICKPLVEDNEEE

RADIL, Q96JH8 = target: T12, RADIL, Q96JH8
T12 sequence (Q96JH8 971-1071, limits assumed, looked up): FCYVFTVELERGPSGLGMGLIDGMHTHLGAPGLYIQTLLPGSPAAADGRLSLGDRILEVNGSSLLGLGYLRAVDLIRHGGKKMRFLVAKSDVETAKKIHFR

[1] = plain residues with an end cap or a label only (N-terminal biotin on a linker: ahx)
[2] = plain residues with an end cap or a label only (N-terminal biotin on a linker: ado-ado)
[3] = plain residues with an end cap or a label only (N-terminal biotin on a linker: (peg)3)

FRMPD3, Q5JV73, sequence (Q5JV73 12-100): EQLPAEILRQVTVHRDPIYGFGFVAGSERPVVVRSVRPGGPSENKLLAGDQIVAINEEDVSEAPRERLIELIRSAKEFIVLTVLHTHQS

QDEKVKESYV [ABCA1, O95477]
pKd (FRMPD3, Q5JV73; [1]): below the threshold
pKd (SIPA1L2, Q9P2F8; [1]): below the threshold
pKd (GRIP1_3, Q9Y3R0; [1]): below the threshold
pKd (TJP3_3, O95049; [1]): below the threshold
pKd (TJP2_1, Q9UDY2; [1]): 4.36
pKd (MAGI2_4, Q86UL8; [1]): 4.04
pKd (ARHGEF11, O15085; [1]): 4.3
pKd (CASK, O14936; [1]): below the threshold
pKd (TJP1_2, Q07157; [1]): below the threshold
pKd (MAST1, Q9Y2H9; [1]): 4.16
pKd (MPP2, Q14168; [1]): below the threshold
pKd (LIN7C, Q9NUP9; [1]): 4.59
pKd (GRIP2_7, Q9C0E4; [1]): 3.59
pKd (DLG1_2, Q12959; [1]): 5.09
pKd (GIPC2, Q8TF65; [1]): 4.26
pKd (DFNB31_2, Q9P202; [1]): 4.79
pKd (SNTG2, Q9NY99; [1]): 5.06
pKd (DLG5_1, Q8TDM6; [1]): below the threshold
pKd (LNX2_3, Q8N448; [1]): 3.63
pKd (MAGI1_2, Q96QZ7; [1]): 4.03
pKd (DFNB31_1, Q9P202; [1]): 3.88
pKd (FRMPD2_1, Q68DX3; [1]): 3.53
pKd (MAGI2_2, Q86UL8; [1]): 4.52
pKd (PARD3B_1, Q8TEW8; [1]): below the threshold
pKd (Inadl_5, Q8NI35; [1]): 3.73
pKd (RADIL, Q96JH8; [1]): 4.89

NISYRRESAI [KCNJ4, P48050]
pKd (FRMPD3, Q5JV73; [2]): below the threshold
pKd (SIPA1L2, Q9P2F8; [2]): below the threshold
pKd (GRIP1_3, Q9Y3R0; [2]): below the threshold
pKd (TJP3_3, O95049; [2]): below the threshold
pKd (TJP2_1, Q9UDY2; [2]): below the threshold
pKd (MAGI2_4, Q86UL8; [2]): below the threshold
pKd (ARHGEF11, O15085; [2]): below the threshold
pKd (CASK, O14936; [2]): below the threshold
pKd (TJP1_2, Q07157; [2]): below the threshold
pKd (MAST1, Q9Y2H9; [2]): 4.06
pKd (MPP2, Q14168; [2]): below the threshold
pKd (LIN7C, Q9NUP9; [2]): below the threshold
pKd (GRIP2_7, Q9C0E4; [2]): below the threshold
pKd (DLG1_2, Q12959; [2]): 4.48
pKd (GIPC2, Q8TF65; [2]): below the threshold
pKd (DFNB31_2, Q9P202; [2]): below the threshold
pKd (SNTG2, Q9NY99; [2]): below the threshold
pKd (DLG5_1, Q8TDM6; [2]): below the threshold
pKd (LNX2_3, Q8N448; [2]): below the threshold
pKd (MAGI1_2, Q96QZ7; [2]): 3.89
pKd (DFNB31_1, Q9P202; [2]): 4.29
pKd (FRMPD2_1, Q68DX3; [2]): below the threshold
pKd (MAGI2_2, Q86UL8; [2]): 4.74
pKd (PARD3B_1, Q8TEW8; [2]): below the threshold
pKd (Inadl_5, Q8NI35; [2]): below the threshold
pKd (RADIL, Q96JH8; [2]): below the threshold

QPRTWLQSPV [RTKN, Q9BST9]
pKd (FRMPD3, Q5JV73; [1]): below the threshold
pKd (SIPA1L2, Q9P2F8; [1]): below the threshold
pKd (GRIP1_3, Q9Y3R0; [1]): below the threshold
pKd (TJP3_3, O95049; [1]): below the threshold
pKd (TJP2_1, Q9UDY2; [1]): below the threshold
pKd (MAGI2_4, Q86UL8; [1]): below the threshold
pKd (ARHGEF11, O15085; [1]): below the threshold
pKd (CASK, O14936; [1]): below the threshold
pKd (TJP1_2, Q07157; [1]): below the threshold
pKd (MAST1, Q9Y2H9; [1]): 3.85
pKd (MPP2, Q14168; [1]): below the threshold
pKd (LIN7C, Q9NUP9; [1]): below the threshold
pKd (GRIP2_7, Q9C0E4; [1]): below the threshold
pKd (DLG1_2, Q12959; [1]): 4.3
pKd (GIPC2, Q8TF65; [1]): below the threshold
pKd (DFNB31_2, Q9P202; [1]): below the threshold
pKd (SNTG2, Q9NY99; [1]): below the threshold
pKd (DLG5_1, Q8TDM6; [1]): below the threshold
pKd (LNX2_3, Q8N448; [1]): below the threshold
pKd (MAGI1_2, Q96QZ7; [1]): 4.83
pKd (DFNB31_1, Q9P202; [1]): 4.35
pKd (FRMPD2_1, Q68DX3; [1]): below the threshold
pKd (MAGI2_2, Q86UL8; [1]): 4.39
pKd (PARD3B_1, Q8TEW8; [1]): below the threshold
pKd (Inadl_5, Q8NI35; [1]): below the threshold
pKd (RADIL, Q96JH8; [1]): below the threshold

RYEDTTLVEDTVL [WNV-NS5, Q9Q6P4]
pKd (FRMPD3, Q5JV73; [3]): 3.88
pKd (SIPA1L2, Q9P2F8; [3]): below the threshold
pKd (GRIP1_3, Q9Y3R0; [3]): below the threshold
pKd (TJP3_3, O95049; [3]): below the threshold
pKd (TJP2_1, Q9UDY2; [3]): below the threshold
pKd (MAGI2_4, Q86UL8; [3]): below the threshold
pKd (ARHGEF11, O15085; [3]): 3.99
pKd (CASK, O14936; [3]): below the threshold
pKd (TJP1_2, Q07157; [3]): 3.55
pKd (MAST1, Q9Y2H9; [3]): 4.3
pKd (MPP2, Q14168; [3]): below the threshold
pKd (LIN7C, Q9NUP9; [3]): below the threshold
pKd (GRIP2_7, Q9C0E4; [3]): below the threshold
pKd (DLG1_2, Q12959; [3]): 3.77
pKd (GIPC2, Q8TF65; [3]): below the threshold
pKd (DFNB31_2, Q9P202; [3]): below the threshold
pKd (SNTG2, Q9NY99; [3]): 4
pKd (DLG5_1, Q8TDM6; [3]): below the threshold
pKd (LNX2_3, Q8N448; [3]): below the threshold
pKd (MAGI1_2, Q96QZ7; [3]): below the threshold
pKd (DFNB31_1, Q9P202; [3]): 3.83
pKd (FRMPD2_1, Q68DX3; [3]): below the threshold
pKd (MAGI2_2, Q86UL8; [3]): below the threshold
pKd (PARD3B_1, Q8TEW8; [3]): 4.66
pKd (Inadl_5, Q8NI35; [3]): below the threshold
pKd (RADIL, Q96JH8; [3]): below the threshold

QRPYRRGSEI [KCNJ18, B7U540]
pKd (FRMPD3, Q5JV73; [2]): below the threshold
pKd (SIPA1L2, Q9P2F8; [2]): below the threshold
pKd (GRIP1_3, Q9Y3R0; [2]): below the threshold
pKd (TJP3_3, O95049; [2]): below the threshold
pKd (TJP2_1, Q9UDY2; [2]): below the threshold
pKd (MAGI2_4, Q86UL8; [2]): below the threshold
pKd (ARHGEF11, O15085; [2]): below the threshold
pKd (CASK, O14936; [2]): below the threshold
pKd (TJP1_2, Q07157; [2]): below the threshold
pKd (MAST1, Q9Y2H9; [2]): below the threshold
pKd (MPP2, Q14168; [2]): below the threshold
pKd (LIN7C, Q9NUP9; [2]): 3.92
pKd (GRIP2_7, Q9C0E4; [2]): below the threshold
pKd (DLG1_2, Q12959; [2]): 3.51
pKd (GIPC2, Q8TF65; [2]): below the threshold
pKd (DFNB31_2, Q9P202; [2]): below the threshold
pKd (SNTG2, Q9NY99; [2]): below the threshold
pKd (DLG5_1, Q8TDM6; [2]): below the threshold
pKd (LNX2_3, Q8N448; [2]): below the threshold
pKd (MAGI1_2, Q96QZ7; [2]): below the threshold
pKd (DFNB31_1, Q9P202; [2]): 3.9
pKd (FRMPD2_1, Q68DX3; [2]): below the threshold
pKd (MAGI2_2, Q86UL8; [2]): 3.8
pKd (PARD3B_1, Q8TEW8; [2]): below the threshold
pKd (Inadl_5, Q8NI35; [2]): below the threshold
pKd (RADIL, Q96JH8; [2]): below the threshold
